Results on 1 molecule are retold here after patent publication US20080015165A1, “NOVEL POLYPEPTIDE” (KYOWA HAKKO KOGYO CO., LTD., priority 1998, published 2008).

The nature of data set [1]: Enzyme activity for monofucosylpoly-N-acetyllactosamine sugar chain P1, Namalwa cell extract, HPLC. The data set is classed as biochemical. The conditions noted are these: relative activity with the activity for P1 assumed to be 1. As for the experimental part:
Samples were allowed to react in 20 μl of an assay solution [50 mM cacodylate (pH 6.8), 5 mM ATP, 10 mM L-fucose, 75 μM […] (manufactured by SIGMA), 25 mM MnCl2, 15 μM fluorescently labeled sugar chain substrate, 6 μl of the cell lysate above] at 37° C. for 2 hours, followed by treatment at 100° C. for 3 minutes to stop the reaction. Next 200 μl of water was added to the samples, and the supernatant was obtained by centrifugation at 10,000×g for 5 minutes. Using an aliquot of the supernatant (10 μl), products were analyzed by HPLC under the following conditions.
HPLC: • Column—TSK-gel ODS-80TsQA column (4.6×250 mm; TOSOH CORPORATION) • Eluate—0.02 M ammonium acetate (pH 4.0) containing 7% methanol • Elution temperature—50° C. • Flow rate—1.0 ml/min. • Detection—Fluorescence spectrum photometer FB-920 (manufactured by JASCO Corporation) (excitation wavelength: 330 nm, radiation wavelength: 420 nm)
The enzymatic activities of Fuc-TIV, Fuc-TVI and Fuc-TIX were measured using the product P1 or P2 as a substrate in addition to the above substrate (S).

Data set [2] concerns Namalwa cells. Put plainly: Indirect fluorescent antibody staining (FACS) of transformed Namalwa cells. The following applies: FIG. 1. In kind it is cell-based, human. As for the experimental part: The plasmids were dissolved in 10 μl of TE buffer. Then each of the plasmids was introduced into Namalwa cells by electroporation method [Cytotechnology, 3, 133 (1990)].
After introducing […] of the plasmids prepared as described above or 4 μg of pAMo (control plasmid) per 1.0×10^6 to 1.6×10^6 cells (200 μl) by electroporation method, the cells were suspended in 8 ml of RPMI1640 media and then cultured in a CO2 incubator for 24 hours at 37° C.
After culturing, the medium was supplemented with G418 (manufactured by GIBCO BRL) to 0.5 mg/ml followed by culturing for another 10 to 14 days, thereby obtaining transformed cells.
Indirect fluorescent antibody staining using the anti-Lewis x sugar chain antibody (PM-81) was performed as follows.
About 1×10^6 transformed cells were added to a microtube (1.5 ml: manufactured by Eppendolf) and then the cells were collected by centrifugation (550×g, 7 minutes).
The cells were washed with 0.9 ml of A-PBS, suspended by adding 20 μl of the anti-Lewis x sugar chain antibody (PM-81) that had been diluted with A-PBS to about 10 μg/ml, and then allowed to react for 1 hour at 4° C. […]
After the reaction, the cells were washed once with 0.9 ml of A-PBS, and then suspended in 0.6 ml of A-PBS, followed by the analysis using a fluorescence activated cell sorter. […]

The subject of data set [3] is Namalwa KJM-1 cells. Put plainly: Indirect fluorescent antibody staining (FACS) of transformed Namalwa KJM-1 cells. In kind it is cell-based, human. The conditions noted are these: antibodies CSLEX-1, KM93; FIG. 2 (also Namalwa cells, FIG. 1). The text has this: Similarly, Namalwa KJM-1 cells, into which a control plasmid (pAMo), a mouse Fuc-TIX expression plasmid (pAMo-mFT9), a human Fuc-TIV expression plasmid (pAMo-FT4), or a human Fuc-TVII expression plasmid (pAMo-FT7) had been introduced, were obtained. The cells were subjected to indirect fluorescent antibody staining using the anti-Lewis x sugar chain antibody (KM380) and an anti-sialyl Lewis x sugar chain antibodies (CSLEX-1 or KM93) (see FIG. 2).

For data set [4], the system named is COS-1 cells. Put plainly: Indirect fluorescent antibody staining (FACS) of transformed COS-1 cells. The conditions noted are these: antibody 7LE; FIG. 3. In kind it is cell-based, African green monkey. As for the experimental part: Further, COS-1 cells, into which a control plasmid (pCDM8), a mouse Fuc-TIX expression plasmid (pCDM8-mFT9), or a human Fuc-TIII expression plasmid (pCDM8-Le) had been introduced, were prepared. The cells were subjected to indirect fluorescent antibody staining using the anti-Lewis a sugar chain antibody (7LE, manufactured by […] CORPORATION) (see FIG. 3).
Each α1,3-fucosyltransferase expression plasmid (15 μg) was introduced into 1×10^7 COS-1 cells.
This introduction was performed by electroporation method using a gene pulser (manufactured by Bio-Rad) according to the Bio-Rad's instructional manual attached thereto. At this time, 1 μg of a luciferase expression vector, which was constructed by inserting β-actin promoter into a Hind III site of a vector pSVOA/L [Experimental Medicine, 7, 96, (1989)] was co-introduced as an index of gene transfer efficiency.

Data set [5] deals with Namalwa cells. Nature of the data set: Indirect fluorescent antibody staining of Namalwa cells expressing human Fuc-TIV or Fuc-TIX (VIM-2 and Le^x sugar chains). In kind it is cell-based. The protocol: Using an anti-VIM-2 sugar chain antibody (anti-CDw65 antibody, manufactured by Serotec) and anti-Le^x sugar chain antibodies [73-30 (manufactured by […] CORPORATION) and anti-CD15 antibody (C3D-1, manufactured by Dako)], indirect fluorescent antibody staining was performed for Namalwa cells expressing human Fuc-TIV or human Fuc-TIX, and for Namalwa cells transfected with the control vector pAMo, which were constructed in Example 9. The VIM-2 sugar chain is a sugar chain having the structure consisting of Galβ1-4GlcNAcβ1-3Galβ1-4(Fucα1-3)GlcNAc on non-reduced terminal of a sugar chain.
Indirect fluorescent antibody staining was performed according to the method described in Example 1 (3). Anti-VIM-2 sugar chain antibodies, 73-30 and C3D-1 were used after dilution at 1:50, 1:100, and 1:50.

B1: Fuc-TIX: human Fuc-TIX, 359 amino acids (SEQ ID NO:2), α1,3-fucosyltransferase expressed from pAMo-FT9 in Namalwa cells (protein)
chain: MTSTSKGILRPFLIVCIILGCFMACLLIYIKPTNSWIFSPMESASSVLKMKNFFSTKTDYFNETTILVWVWPFGQTFDLTSCQAMFNIQGCHLTTDRSLYNKSHAVLIHHRDISWDLTNLPQQARPPFQKWIWMNLESPTHTPQKSGIEHLFNLTLTYRRDSDIQVPYGFLTVSTNPFVFEVPSKEKLVCWVVSNWNPEHARVKYYNELSKSIEIHTYGQAFGEYVNDKNLIPTISACKFYLSFENSIHKDYITEKLYNAFLAGSVPVVLGPSRENYENYIPADSFIHVEDYNSPSELAKYLKEVDKNNKLYLSYFNWRKDFTVNLPRFWESHACLACDHVKRHQEYKSVGNLEKWFWN
modifications: human
B1: the “Enzymatic activity, substrate P1, product P3” value in data set [1] is 1.0. For the same molecule, in data set [2], the “synthesis of the Lewis x sugar chain in transformed cells” value is on record as “can synthesize” and the “synthesis of the Lewis y sugar chain in transformed cells” value is “can synthesize”. In addition, the “synthesis of the sialyl Lewis x sugar chain in transformed cells” value in data set [3] was “cannot synthesize”. In data set [4], the “synthesis of the Lewis a sugar chain in transformed cells” value is “cannot synthesize”. The “reactivity against the anti-Le^x sugar chain antibodies [73-30 and anti-CD15 antibody]” value in data set [5] (Namalwa cells expressing Fuc-TIX compared with those expressing Fuc-TIV) is “greater”. Moreover, the “reactivity against the anti-VIM-2 sugar chain antibody” value in data set [5] (compared to Namalwa cells transfected with pAMo) is recorded as “slight increase”.
